Earlier results, collected in PMC2033707.

Target: EGF (UniProt P01133)
Sequence of UniProt P01133 (P01133 971-1023): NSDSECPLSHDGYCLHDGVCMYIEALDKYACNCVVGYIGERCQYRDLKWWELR

## EGFR (from UniProt P00533)
  Kd: 1 nM
